# Patent publication US20100047228
# Test system: delta-plasminogen
# Sequence (chain, as listed by the source mutant): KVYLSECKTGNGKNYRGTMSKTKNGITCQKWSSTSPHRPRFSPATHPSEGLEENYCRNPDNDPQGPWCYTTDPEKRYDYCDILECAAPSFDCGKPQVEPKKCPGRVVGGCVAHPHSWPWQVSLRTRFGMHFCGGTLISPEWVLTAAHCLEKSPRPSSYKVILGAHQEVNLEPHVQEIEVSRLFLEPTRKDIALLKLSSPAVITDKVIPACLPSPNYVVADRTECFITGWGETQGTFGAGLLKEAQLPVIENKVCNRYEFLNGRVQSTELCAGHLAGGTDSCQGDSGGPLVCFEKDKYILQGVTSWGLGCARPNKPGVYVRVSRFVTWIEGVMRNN
substance,measurement,value
urokinase,conversion of one-chain delta-plasminogen into two-chain delta-plasmin (reduced SDS-PAGE),delta-plasminogen indeed can be activated by all three plasminogen activators
